We go through two proteins from US20050272077.

Residue numbers refer to the chain shown, from its start.

The target of data set [1] is GST-ERK2 [GST: P08515].
The target in data set [2] is GST-JNK1, P45983.
Data set [3] deals with GST-p38 MAP kinase (wild-type, TGY), Q16539.
Data set [4] has as its target mutated GST-p38 MAP kinase (AGF), Q16539.
Data set [5] deals with T1, GST-ATF2 fusion protein (residues 1-505), P15336.
T1 chain: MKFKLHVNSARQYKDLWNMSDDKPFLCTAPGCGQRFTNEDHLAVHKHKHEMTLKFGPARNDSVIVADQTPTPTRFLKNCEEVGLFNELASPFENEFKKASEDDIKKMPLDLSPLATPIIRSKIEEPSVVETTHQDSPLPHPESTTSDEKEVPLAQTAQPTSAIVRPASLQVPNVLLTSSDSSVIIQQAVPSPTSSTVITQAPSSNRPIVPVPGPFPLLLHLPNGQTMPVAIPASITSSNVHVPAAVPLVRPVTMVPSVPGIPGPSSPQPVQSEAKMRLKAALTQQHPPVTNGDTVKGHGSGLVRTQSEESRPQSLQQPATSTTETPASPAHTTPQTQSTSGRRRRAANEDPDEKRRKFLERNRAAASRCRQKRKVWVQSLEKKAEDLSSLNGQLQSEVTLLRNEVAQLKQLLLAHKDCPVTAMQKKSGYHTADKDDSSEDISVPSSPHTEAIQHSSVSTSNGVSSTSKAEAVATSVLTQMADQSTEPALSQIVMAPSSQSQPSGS

The target in data set [6] is T2, mutated ATF2 (Ala^69.71), P15336.
T2 chain: T1 chain with T69A, T71A

Sequence of GST-p38 MAP kinase (wild-type, TGY), Q16539 (Q16539 whole entry): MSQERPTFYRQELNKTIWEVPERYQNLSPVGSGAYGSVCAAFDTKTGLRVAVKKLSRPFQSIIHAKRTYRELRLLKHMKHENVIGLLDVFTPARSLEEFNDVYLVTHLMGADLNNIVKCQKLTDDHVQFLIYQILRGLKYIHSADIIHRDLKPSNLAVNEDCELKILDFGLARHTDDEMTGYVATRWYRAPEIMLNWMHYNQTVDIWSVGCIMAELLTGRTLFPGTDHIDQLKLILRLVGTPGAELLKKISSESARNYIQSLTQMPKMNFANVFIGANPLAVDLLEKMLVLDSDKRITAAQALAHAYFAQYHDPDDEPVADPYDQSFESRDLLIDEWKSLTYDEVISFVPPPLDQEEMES
Sequence of GST-ERK2 [GST: P08515] (P08515 whole entry, looked up): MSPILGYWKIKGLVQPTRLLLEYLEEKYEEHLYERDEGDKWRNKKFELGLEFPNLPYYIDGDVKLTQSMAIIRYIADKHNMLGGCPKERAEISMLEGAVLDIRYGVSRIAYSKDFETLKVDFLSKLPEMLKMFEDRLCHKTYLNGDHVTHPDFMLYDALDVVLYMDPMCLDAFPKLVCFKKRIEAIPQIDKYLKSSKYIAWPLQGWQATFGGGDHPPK
Sequence of mutated GST-p38 MAP kinase (AGF), Q16539 (Q16539 whole entry, looked up, change not shown, the tested form may be a part): as the sequence (Q16539 whole entry) above

B1: GST-MKK3 (protein)
chain: MSKPPAPNPTPPRNLDSRTFITIGDRMFEVEADDLVTISELGRGAYGVVEKVRHAQSGTIMAVKRIRATVNSQEQKRLLMDLDINMRTVDCFYTVTFYGALFREGDVWICMELMDTSLDKFYRKVLDKNMTIPEDILGEIAVSIVRALEHLHSKLSVIHRDVKPSNVLINKEGHVKMCDFGISGYLVDSVAKTMDAGCKPYMAPERINPELNQKGYNVKSDVWSLGITMIEMAILRFPYESWGTPFQQLKQVVEEPSPQLPADRFSPEFVDFTAQCLRKNPAERMSYLELMEHPFFTLHKTKKTDIAAFVKKILGEDS
B1: the “phosphorylation of the substrate protein (in vitro kinase assay, [γ-32P]ATP, SDS-PAGE, autoradiography)” value in data set [1] is reported as “MKK3 phosphorylated p38 MAP kinase, but not JNK1 or ERK2”; in data set [2] it was “MKK3 phosphorylated p38 MAP kinase, but not JNK1 or ERK2”; in data set [3] it was “MKK3 phosphorylated p38 MAP kinase, but not JNK1 or ERK2”. Further, the “phosphorylation of the substrate protein (in vitro kinase assay, SDS-PAGE, autoradiography)” value in data set [3] and in data set [4] was “Only phosphorylation of wild-type p38 was observed” throughout.

B2: JNK1 from UV-irradiated cells (protein)
chain: MSRSKRDNNFYSVEIGDSTFTVLKRYQNLKPIGSGAQGIVCAAYDAILERNVAIKKLSRPFQNQTHAKRAYRELVLMKCVNHKNIIGLLNVFTPQKSLEEFQDVYIVMELMDANLCQVIQMELDHERMSYLLYQMLCGIKHLHSAGIIHRDLKPSNIVVKSDCTLKILDFGLARTAGTSFMMTPYVVTRYYRAPEVILGMGYKENVDLWSVGCIMGEMVCHKILFPGRDYIDQWNKVIEQLGTPCPEFMKKLQPTVRTYVENRPKYAGYSFEKLFPDVLFPADSEHNKLKASQARDLLSKMLVIDASKRISVDEALQHPYINVWYDPSEAEAPPPKIPDKQLDEREHTIEEWKELIYKEVMDLEERTKNGVIRGQPSPLAQVQQ
In the case of B2, the “in-gel protein kinase assay with GST-ATF2 (residues 1-505) polymerized in the gel” value in data set [5] was 46 kD and 55 kD protein kinases that phosphorylate ATF2 in extracts prepared from UV-irradiated cells. The 46 kD and 55 kD protein kinases were identified as JNK1 and JNK2, respectively. Besides, the “phosphorylation of ATF2 by JNK1 (phosphopeptide mapping and mutational analysis)” value in data set [6] is recorded as “Phosphorylation of mutated ATF2 was not observed”.
